From paper PMC2859121 (Cell host & microbe, 2010)
Where a chain is given by its changes, count along the chain named. * marks the point of attachment. Cam = NC(=O)C*

Assays:
cross-linking = target: the molecule itself; test: cross-linking
[1] = target: the molecule itself; test: SDS-PAGE under reducing and non-reducing conditions

B1: tetherin(80–147), reduced with DTT and cysteines blocked with iodoacetamide (domain or fragment, human, UniProt Q10589 80-147, looked up)
chain: GFQDVEAQAATC(Cam)NHTVMALMASLDAEKAQGQKKVEELEGEITTLNHKLQDASAEVERLRRENQVLSVR
cross-linking
  stoichiometry N: 2

B2: tetherin(80–147) (domain or fragment, human, UniProt Q10589 80-147, looked up)
chain: GFQDVEAQAATCNHTVMALMASLDAEKAQGQKKVEELEGEITTLNHKLQDASAEVERLRRENQVLSVR
[1]
  stoichiometry N: 2

B3: tetherin(47–159) (domain or fragment, human, UniProt Q10589 47-159, looked up)
chain: KANSEACRDGLRAVMECRNVTHLLQQELTEAQKGFQDVEAQAATCNHTVMALMASLDAEKAQGQKKVEELEGEITTLNHKLQDASAEVERLRRENQVLSVRIADKKYYPSSQD
[1]
  stoichiometry N: 2

B4: tetherin(47–159)_set2 (domain or fragment, human, UniProt Q10589 47-159, looked up)
chain: B3 chain with L81K, A84Y, V88E, L91E
[1]
  binding result: binds

B5: tetherin(47–159), reduced with DTT and cysteines blocked with iodoacetamide (domain or fragment, human, UniProt Q10589 47-159, looked up)
chain: B3 chain
modifications: cysteines blocked with iodoacetamide after reduction with DTT
cross-linking
  stoichiometry N: 2

B6: tetherin(47–159) set 3 mutant (domain or fragment, human, UniProt Q10589 47-159, looked up)
chain: B3 chain with K1A, N3G, E5A, R8S, D9A, R12S
[1]
  stoichiometry N: 2
